We go through 2 substances from paper PMC8633249.

pKd: −log10 of the molar value.

Experiment [1] deals with AGL55, 55-mer A-domain peptide of PAM_(NS88.2) (Streptococcus pyogenes (GAS isolate NS88.2)). Nature of the experiment: ITC; K2hPg (syringe) titrated into AGL55 (30 µM, cell); 50 mM sodium phosphate/100 mM NaCl, pH 7.4; 4°C; hetero-association model A + B (Sedphat). On the technique in general: Isothermal titration calorimetry measures the heat released or taken up as one component is titrated into another.

Experiment [2] shares this target. Nature of the experiment: ITC; K2hPg (syringe) titrated into AGL55 (30 µM, cell); 50 mM sodium phosphate/100 mM NaCl, pH 7.4; 25°C; hetero-association model A + B (Sedphat).
For experiment [3] the target is unchanged. Nature of the experiment: ITC; K2hPg (syringe) titrated into AGL55 (30 µM, cell); 50 mM sodium phosphate/100 mM NaCl, pH 7.4; 37°C; hetero-association model A + B (Sedphat).
Experiment [4] has the same target. Nature of the experiment: SEC-MALS; K2hPg/AGL55 mixture on a Wyatt 030S5 column, UV, RI and MALS detection, protein conjugate analysis; 50 mM Na-phosphate/100 mM NaCl, pH 7.4; 25°C. (In general: SEC sorts molecules by how far they enter the pores of the column.)
In experiment [5] the target is PAM_(NS88.2), plasminogen-binding Group A streptococcal M-protein from GAS isolate NS88.2 (Streptococcus pyogenes (GAS isolate NS88.2)). Nature of the experiment: ITC; K2hPg (syringe) titrated into PAM_(NS88.2) (6 µM as monomer, cell); 50 mM sodium phosphate/100 mM NaCl, pH 7.4; 37°C; hetero-association model (Sedphat).
Experiment [6] has the same target. Nature of the experiment: ITC; K2hPg (syringe) titrated into PAM_(NS88.2) (6 µM as monomer, cell); 50 mM sodium phosphate/100 mM NaCl, pH 7.4; 4°C; hetero-association model of K2hPg and PAM monomer (Sedphat).
For experiment [7] the target is unchanged. Nature of the experiment: AUC; sedimentation equilibrium of the K2hPg/PAM_(NS88.2) complex isolated by gel filtration, at the temperature of its isolation (4°C, 25°C, 37°C); 50 mM sodium phosphate/100 mM NaCl, pH 7.4.
Experiment [8] shares this target. Nature of the experiment: ITC; K2hPg (syringe) titrated into PAM_(NS88.2) (6 µM as monomer, cell); 50 mM sodium phosphate/100 mM NaCl, pH 7.4; 25°C; only the final inflection fitted, hetero-association model A + B (Sedphat).
For experiment [9] the target is unchanged. Nature of the experiment: AUC; apo-PAM_(NS88.2), sedimentation equilibrium at two rotor speeds (<0.2 mg/ml) and sedimentation velocity (6 µM); 50 mM sodium phosphate/100 mM NaCl, pH 7.4; 4°C, 15°C and 25°C.

On to “K2hPg, kringle-2 domain of human plasminogen (from UniProt P00747 183-262) (domain or fragment)”, for which the stoichiometry N in experiment [1], in experiment [2], in experiment [3], in experiment [4] and in experiment [7] was 1 m:m throughout. The negative-log Kd (pKd) (as a rule, −log10 of the Kd, conventionally taken in molar units) in experiment [5] is 6.74; in experiment [6], 9.15; in experiment [8], 8.57. Moreover, the dH in [5] is -37 kcal/mol; in experiment [6] it was -13.7 kcal/mol.

With “PAM_(NS88.2), plasminogen-binding Group A streptococcal M-protein from GAS isolate NS88.2 (natural protein)”, in [9], the stoichiometry N (commonly a count of units in the complex or per binding partner) is 2.
